Measurements published in patent US20230312721A1 (published 2023).

T1: 4Ig human B7-H3 (human, UniProt Q5ZPR3 29-466, limits assumed)
T1 construct: Soluble analyte in SPR; also called 4Ig-B7H3; 4Ig B7H3
T1 sequence: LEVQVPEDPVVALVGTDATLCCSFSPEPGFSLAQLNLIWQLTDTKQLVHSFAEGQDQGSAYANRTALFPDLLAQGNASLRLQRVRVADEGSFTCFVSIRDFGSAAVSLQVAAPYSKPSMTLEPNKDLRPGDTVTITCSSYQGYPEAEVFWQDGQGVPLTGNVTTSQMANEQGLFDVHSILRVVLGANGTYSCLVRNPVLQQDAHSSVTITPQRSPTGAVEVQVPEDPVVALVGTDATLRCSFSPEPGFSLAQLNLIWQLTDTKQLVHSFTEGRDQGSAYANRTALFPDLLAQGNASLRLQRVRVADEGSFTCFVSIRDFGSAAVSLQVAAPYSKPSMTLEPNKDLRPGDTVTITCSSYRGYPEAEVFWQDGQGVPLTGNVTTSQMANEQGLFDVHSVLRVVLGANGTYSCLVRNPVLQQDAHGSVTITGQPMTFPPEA


Biological target: T1, 4Ig human B7-H3
Assay: SPR, Carterra LSA; antibody captured on anti-human Fc lawn, 4Ig human B7-H3 as analyte
Experimental: Chimeric and humanized antibodies were generated using CDR grafting methods using closely homologous human germline sequences. Six different humanized VH and four humanized VL sequences were combined to generate 24 different humanized IgG1 antibodies. The antibodies were expressed in HEK293 cells and purified using Protein A resin. Antibodies were buffer exchanged into PBS and quantified by OD280 and titer was calculated. Sample purity and aggregation status was determined by analytical Size Exclusion Chromatography (SEC-HPLC), which separates molecules based on molecular mass and hydrodynamic volume. Area % of each peak is calculated based on total area of the peaks. Peak symmetry is calculated to determine the peak fronting (<1) or tailing (>1). A column of 300A pore size was used for detection at 280 nm and PBS as the running buffer. Surface plasmon resonance studies to assess binding affinities were carried out on a Carterra LSA instrument. An anti-human Fc antibody “lawn” was prepared on a HC30M chip by amine coupling. The chip was activated with equal volume of 100 mM MES pH 5.5, 100 mM S-NHS and 400 mM EDC. The anti-human IgG Fc antibody was immobilized. The chip was deactivated with 1 M ethanolamine pH 8.5. Antibodies were diluted and printed onto the anti-human Fc lawn. An 8-point series of 4Ig human B7-H3 was prepared.
The characterization data, including expression titers (mg of purified protein per L of culture), purity (% monomer peak by analytical SEC-HPLC) and affinity measurement by SPR (ka, kd and KD) are summarized in Table 1 and FIG. 1-4.

Binder | Kd | koff | kon
L3H1 (antibody, human IgG1, kappa, V domains shown, Humanized IgG1, HEK293; chains tied by the L/H names; also called YB8 L3 + YB8 H1) VH: QVQLVQSGAEVKKPGASVKVSCKASGYTFTNYDINWVRQATGQGLEWIGWIFPGDGSTQYNEKFQGRVTLTTNTSISTAYMELSSLRSEDTAVYYCARQTTATWFAYWGQGTLVTVSS VL: EIVMTQSPDFQSVTPKEKVTLTCRASQSISDYLHWYQQKPDQSPKLLIKYASQSISGVPSRFSGSGSGSDFTLTINSLEAEDAGVYYCQNGHSFPLTFGQGTKLEIKR | 10 nM | 0.00034 s⁻¹ | 34000 M⁻¹ s⁻¹
L1H2 (antibody, human IgG1, kappa, Humanized IgG1, HEK293; chains tied by the L/H names; also called YB8 L1 + YB8 H2) heavy: not shown light: EIVLTQSPDFQSVTPKEKVTLTCRASQSISDYLHWYQQKPDQSPKLLIKYASQSISGVPSRFSGSGSGSDFTLTINSLEAEDAATYYCQNGHSFPLTFGQGTKLEIKRTVAAPSVFIFPPSDEQLKSGTASVVCLLNNFYPREAKVQWKVDNALQSGNSQESVTEQDSKDSTYSLSSTLTLSKADYEKHKVYACEVTHQGLSSPVTKSFNRGEC | 14 nM | 0.00041 s⁻¹ | 29000 M⁻¹ s⁻¹
L1H1 (antibody, human IgG1, kappa, Humanized IgG1, HEK293; chains tied by the L/H names; also called YB8 L1 + YB8 H1) heavy: not shown light: EIVLTQSPDFQSVTPKEKVTLTCRASQSISDYLHWYQQKPDQSPKLLIKYASQSISGVPSRFSGSGSGSDFTLTINSLEAEDAATYYCQNGHSFPLTFGQGTKLEIKRTVAAPSVFIFPPSDEQLKSGTASVVCLLNNFYPREAKVQWKVDNALQSGNSQESVTEQDSKDSTYSLSSTLTLSKADYEKHKVYACEVTHQGLSSPVTKSFNRGEC | 15 nM | 0.00043 s⁻¹ | 31000 M⁻¹ s⁻¹
L1H5 (antibody, human IgG1, kappa, Humanized IgG1, HEK293; chains tied by the L/H names; also called YB8 L1 + YB8 H5) heavy: not shown light: EIVLTQSPDFQSVTPKEKVTLTCRASQSISDYLHWYQQKPDQSPKLLIKYASQSISGVPSRFSGSGSGSDFTLTINSLEAEDAATYYCQNGHSFPLTFGQGTKLEIKRTVAAPSVFIFPPSDEQLKSGTASVVCLLNNFYPREAKVQWKVDNALQSGNSQESVTEQDSKDSTYSLSSTLTLSKADYEKHKVYACEVTHQGLSSPVTKSFNRGEC | 11 nM | 0.00042 s⁻¹ | 39000 M⁻¹ s⁻¹
L1H6 (antibody, human IgG1, kappa, Humanized IgG1, HEK293; chains tied by the L/H names; also called YB8 L1 + YB8 H6) heavy: not shown light: EIVLTQSPDFQSVTPKEKVTLTCRASQSISDYLHWYQQKPDQSPKLLIKYASQSISGVPSRFSGSGSGSDFTLTINSLEAEDAATYYCQNGHSFPLTFGQGTKLEIKRTVAAPSVFIFPPSDEQLKSGTASVVCLLNNFYPREAKVQWKVDNALQSGNSQESVTEQDSKDSTYSLSSTLTLSKADYEKHKVYACEVTHQGLSSPVTKSFNRGEC | 25 nM | 0.00066 s⁻¹ | 26000 M⁻¹ s⁻¹
L1H3 (antibody, human IgG1, kappa, Humanized IgG1, HEK293; chains tied by the L/H names; also called YB8 L1 + YB8 H3) heavy: not shown light: EIVLTQSPDFQSVTPKEKVTLTCRASQSISDYLHWYQQKPDQSPKLLIKYASQSISGVPSRFSGSGSGSDFTLTINSLEAEDAATYYCQNGHSFPLTFGQGTKLEIKRTVAAPSVFIFPPSDEQLKSGTASVVCLLNNFYPREAKVQWKVDNALQSGNSQESVTEQDSKDSTYSLSSTLTLSKADYEKHKVYACEVTHQGLSSPVTKSFNRGEC | 8.1 nM | 0.00035 s⁻¹ | 43000 M⁻¹ s⁻¹
L1H4 (antibody, human IgG1, kappa, Humanized IgG1, HEK293; chains tied by the L/H names; also called YB8 L1 + YB8 H4) heavy: not shown light: EIVLTQSPDFQSVTPKEKVTLTCRASQSISDYLHWYQQKPDQSPKLLIKYASQSISGVPSRFSGSGSGSDFTLTINSLEAEDAATYYCQNGHSFPLTFGQGTKLEIKRTVAAPSVFIFPPSDEQLKSGTASVVCLLNNFYPREAKVQWKVDNALQSGNSQESVTEQDSKDSTYSLSSTLTLSKADYEKHKVYACEVTHQGLSSPVTKSFNRGEC | 9.5 nM | 0.00041 s⁻¹ | 43000 M⁻¹ s⁻¹

Continued, values first:

Kd | koff | kon | Binder
11 nM | 0.00035 s⁻¹ | 32000 M⁻¹ s⁻¹ | L3H2 (antibody, human IgG1, kappa, V domains shown, Humanized IgG1, HEK293; chains tied by the L/H names; also called YB8 L3 + YB8 H2) VH: QVQLQQSGAEVKKPGASVKVSCKASGYTFTNYDINWVRQATGQGLEWIGWIFPGDGSTQYNEKFKGRATLTRNTSISTAYMELSSLRSEDTAVYYCARQTTATWFAYWGQGTLVTVSS VL: EIVMTQSPDFQSVTPKEKVTLTCRASQSISDYLHWYQQKPDQSPKLLIKYASQSISGVPSRFSGSGSGSDFTLTINSLEAEDAGVYYCQNGHSFPLTFGQGTKLEIKR
24 nM | 0.00051 s⁻¹ | 21000 M⁻¹ s⁻¹ | L2H6 (antibody, human IgG1, kappa, Humanized IgG1, HEK293; chains tied by the L/H names; also called YB8 L2 + YB8 H6) heavy: not shown light: EIVMTQSPDFQSVTPKEKVTITCRASQSISDYLHWYQQKPDQSPKLLIKYASQSISGVPSRFSGSGSGSDFTLTINSLEAEDAATYYCQNGHSFPLTFGQGTKLEIKRTVAAPSVFIFPPSDEQLKSGTASVVCLLNNFYPREAKVQWKVDNALQSGNSQESVTEQDSKDSTYSLSSTLTLSKADYEKHKVYACEVTHQGLSSPVTKSFNRGEC
11 nM | 0.00037 s⁻¹ | 33000 M⁻¹ s⁻¹ | L2H2 (antibody, human IgG1, kappa, Humanized IgG1, HEK293; chains tied by the L/H names; also called YB8 L2 + YB8 H2) heavy: not shown light: EIVMTQSPDFQSVTPKEKVTITCRASQSISDYLHWYQQKPDQSPKLLIKYASQSISGVPSRFSGSGSGSDFTLTINSLEAEDAATYYCQNGHSFPLTFGQGTKLEIKRTVAAPSVFIFPPSDEQLKSGTASVVCLLNNFYPREAKVQWKVDNALQSGNSQESVTEQDSKDSTYSLSSTLTLSKADYEKHKVYACEVTHQGLSSPVTKSFNRGEC
9.7 nM | 0.00032 s⁻¹ | 32000 M⁻¹ s⁻¹ | L3H3 (antibody, human IgG1, kappa, V domains shown, Humanized IgG1, HEK293; chains tied by the L/H names; also called YB8 L3 + YB8 H3) VH: QVQLVQSGAEVKKPGASVKVSCKASGYTFTNYDINWVRQATGQGLEWMGWIFPGDGSTQYNEKFKGRVTLTRNTSISTAYMELSSLRSEDTAVYFCARQTTATWFAYWGQGTLVTVSS VL: EIVMTQSPDFQSVTPKEKVTLTCRASQSISDYLHWYQQKPDQSPKLLIKYASQSISGVPSRFSGSGSGSDFTLTINSLEAEDAGVYYCQNGHSFPLTFGQGTKLEIKR
8.4 nM | 0.00033 s⁻¹ | 40000 M⁻¹ s⁻¹ | L3H4 (antibody, human IgG1, kappa, V domains shown, Humanized IgG1, HEK293; chains tied by the L/H names; also called YB8 L3 + YB8 H4) VH: QVQLVQSGAEVKKPGASVKVSCKASGYTFTNYDINWVRQATGQGLEWIGWIFPGDGSTQYNEKFQGRVTMTTNTSISTAYMELSSLRSEDTAVYFCARQTTATWFAYWGQGTLVTVSS VL: EIVMTQSPDFQSVTPKEKVTLTCRASQSISDYLHWYQQKPDQSPKLLIKYASQSISGVPSRFSGSGSGSDFTLTINSLEAEDAGVYYCQNGHSFPLTFGQGTKLEIKR
8.2 nM | 0.00036 s⁻¹ | 44000 M⁻¹ s⁻¹ | L2H4 (antibody, human IgG1, kappa, Humanized IgG1, HEK293; chains tied by the L/H names; Lead candidate; also called YB8 L2 + YB8 H4) heavy: not shown light: EIVMTQSPDFQSVTPKEKVTITCRASQSISDYLHWYQQKPDQSPKLLIKYASQSISGVPSRFSGSGSGSDFTLTINSLEAEDAATYYCQNGHSFPLTFGQGTKLEIKRTVAAPSVFIFPPSDEQLKSGTASVVCLLNNFYPREAKVQWKVDNALQSGNSQESVTEQDSKDSTYSLSSTLTLSKADYEKHKVYACEVTHQGLSSPVTKSFNRGEC
9.9 nM | 0.00034 s⁻¹ | 34000 M⁻¹ s⁻¹ | L2H3 (antibody, human IgG1, kappa, Humanized IgG1, HEK293; chains tied by the L/H names; Lead candidate; also called YB8 L2 + YB8 H3) heavy: not shown light: EIVMTQSPDFQSVTPKEKVTITCRASQSISDYLHWYQQKPDQSPKLLIKYASQSISGVPSRFSGSGSGSDFTLTINSLEAEDAATYYCQNGHSFPLTFGQGTKLEIKRTVAAPSVFIFPPSDEQLKSGTASVVCLLNNFYPREAKVQWKVDNALQSGNSQESVTEQDSKDSTYSLSSTLTLSKADYEKHKVYACEVTHQGLSSPVTKSFNRGEC
11 nM | 0.00041 s⁻¹ | 39000 M⁻¹ s⁻¹ | L2H1 (antibody, human IgG1, kappa, Humanized IgG1, HEK293; chains tied by the L/H names; also called YB8 L2 + YB8 H1) heavy: not shown light: EIVMTQSPDFQSVTPKEKVTITCRASQSISDYLHWYQQKPDQSPKLLIKYASQSISGVPSRFSGSGSGSDFTLTINSLEAEDAATYYCQNGHSFPLTFGQGTKLEIKRTVAAPSVFIFPPSDEQLKSGTASVVCLLNNFYPREAKVQWKVDNALQSGNSQESVTEQDSKDSTYSLSSTLTLSKADYEKHKVYACEVTHQGLSSPVTKSFNRGEC
9.4 nM | 0.0004 s⁻¹ | 42000 M⁻¹ s⁻¹ | L2H5 (antibody, human IgG1, kappa, chains tied by the L/H names; Selected lead; also called YB8-L2H5; YB8 L2 + YB8 H5) heavy: not shown light: EIVMTQSPDFQSVTPKEKVTITCRASQSISDYLHWYQQKPDQSPKLLIKYASQSISGVPSRFSGSGSGSDFTLTINSLEAEDAATYYCQNGHSFPLTFGQGTKLEIKRTVAAPSVFIFPPSDEQLKSGTASVVCLLNNFYPREAKVQWKVDNALQSGNSQESVTEQDSKDSTYSLSSTLTLSKADYEKHKVYACEVTHQGLSSPVTKSFNRGEC
10 nM | 0.00079 s⁻¹ | 78000 M⁻¹ s⁻¹ | chimeric anti-B7H3 IgG (Chimeric Heavy Chain (Parental) + Chimeric Light chain (parental)) (antibody, V domains shown, Chimeric IgG1 with murine 8H9 variable domains, expressed in HEK293; also called Chimeric IgG; parental chimeric antibody) VH: QVQLQQSGAELVKPGASVKLSCKASGYTFTNYDINWVRQRPEQGLEWIGWIFPGDGSTQYNEKFKGKATLTTDTSSSTAYMQLSRLTSEDSAVYFCARQTTATWFAYWGQGTLVTVSA VL: DIVMTQSPATLSVTPGDRVSLSCRASQSISDYLHWYQQKSHESPRLLIKYASQSISGIPSRFSGSGSGSDFTLSINSVEPEDVGVYYCQNGHSFPLTFGAGTKLELKR
